One assay concerns the target chimpanzee Fab 1A5. Put plainly: competition ELISA: Fab 1A5 (1.04 nM) pre-incubated with peptide in serial dilution, then binding to DENV-2 coated wells.
Assay [1] has as its target DENV-2 antigenic variant NGC-V2 (dengue type 2 virus), P14340. Nature of the assay: cell-based or functional assay.

Regarding DRGWGNGSGLFGKGG (modifications not checked) [fusion peptide …], in the assay with chimpanzee Fab 1A5, the IC50 came to 170 µM.

B1: chimpanzee Fab 1A5 (Fab, V domains shown)
VH: EVQLLESGGGLVQPGGSRRLSCAASGFTISDNVMHWVRQAPGKGLEWVALIYSADTTHYADSVKGRFTISRDNSKNTLYLQMDSLRPEDTAVYYCAREYCTGDTCFAHFDYWGQGTLVSVSS
VL: ELQMTQSPSSVSASVGDTVTIACRASQSITNYLSWYQQKPGKAPKLLIYHASTLQSGIPSRFSGSGSGTDFTLTISSLQPDDFATYYCHYGYGTHTFGQGTKLEIKRT
In turn, B1 returned a PRNT50 titer in assay [1] of more than 70 µg/mL.

One may read the IC50 as the point on the concentration scale where inhibition reaches its midpoint. A higher IC50 goes with weaker potency in that assay.

Values taken from US20070134256A1.
